Assays:
Test in all cases: SPR
[1] = tested on: AIV H5N9 whole virus (Influenza A virus H5N9); settings: biotin, PBS 10 mM pH 7.4, temperature not stated
[2] = tested on: inactivated AIV H2N2 whole virus (Influenza A virus H2N2); settings: biotin, PBS 10 mM pH 7.4, temperature not stated
[3] = tested on: inactivated AIV H9N2 whole virus (Influenza A virus H9N2); settings: biotin, PBS 10 mM pH 7.4, temperature not stated
[4] = tested on: inactivated AIV H5N1 whole virus (HA on virion) (Influenza A virus H5N1); settings: biotin, PBS 10 mM pH 7.4, temperature not stated
[5] = tested on: inactivated AIV H1N1 whole virus (Influenza A virus H1N1); settings: biotin, PBS 10 mM pH 7.4, temperature not stated
[6] = tested on: inactivated AIV H7N2 whole virus (Influenza A virus H7N2); settings: biotin, PBS 10 mM pH 7.4, temperature not stated
[7] = tested on: inactivated AIV H5N2 whole virus (Influenza A virus H5N2); settings: biotin, PBS 10 mM pH 7.4, temperature not stated
[8] = tested on: hemagglutinin (HA) of AIV H5N1, purified (Influenza A virus H5N1); settings: PBS 10 mM pH 7.4, temperature not stated; cited from earlier work

With “GTGTGCATGGATAGCACGTAACGGTGTAGTAGATACGTGCGGGTAGGAAGAAAGGGAAATAGTTGTCCTGTTG [H5N1 DNA aptamer, biotinylated (sensor)]” the binding signal [1] was 3 RI 10^-6, the binding signal [2] was -1 RI 10^-6 and the binding signal [3] was 2 RI 10^-6. For the same sequence, the binding signal [4] was 262 RI 10^-6, the binding signal [5] was -4 RI 10^-6 and the binding signal [6] was 7 RI 10^-6. For the same sequence, the binding signal [7] was 10 RI 10^-6.

In the case of “GTGTGCATGGATAGCACGTAACGGTGTAGTAGATACGTGCGGGTAGGAAGAAAGGGAAATAGTTGTCCTGTTG [H5N1 DNA aptamer, best candidate (previous study)]”, the Kd [8] is given as 4.65 nM.

— publication PMC3478855
